Experimental data: patent publication KR20230175116A (dated 2023)

T1: DR3 on cells (DR3 stable cell line; DR3 on human PBMC T cells) (human, UniProt Q93038 25-417)
T1 construct: whole, on cells; Also used for the DR3 of hPBMC T cells in the NF-kB assays; also called 세포 표면에서 발현된 DR3; DR3 natural form
T1 sequence (looked up): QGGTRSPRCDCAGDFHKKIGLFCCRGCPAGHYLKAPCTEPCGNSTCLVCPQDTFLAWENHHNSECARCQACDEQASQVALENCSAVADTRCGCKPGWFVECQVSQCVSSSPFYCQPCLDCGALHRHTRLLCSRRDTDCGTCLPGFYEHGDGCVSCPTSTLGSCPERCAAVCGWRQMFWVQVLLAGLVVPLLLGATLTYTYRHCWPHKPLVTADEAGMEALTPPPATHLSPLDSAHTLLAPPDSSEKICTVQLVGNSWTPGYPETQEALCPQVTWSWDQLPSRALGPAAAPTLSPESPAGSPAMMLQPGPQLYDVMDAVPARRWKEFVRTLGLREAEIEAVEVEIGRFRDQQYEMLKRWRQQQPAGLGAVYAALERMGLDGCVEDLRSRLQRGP


Molecular target: T1, DR3 on cells (DR3 stable cell line; DR3 …)
Assay: FACS, DR3 stable cell line, 2 ug/ml mAb, anti-human IgG PE

Row | Binder | binding result
1 | 6-2 mAb (antibody, V domains shown, Human monoclonal IgG; also called clone 6-2; clone 6-2 IgG1) VH: QVQLVQSGGGLVQPGGSLRLSCAASGFTFSSYSMNWVRQAPGKGLEWVSYISSSSSTIYYADSVKGRFTISRDNAKNSLYLQMNSLRAEDTAVYYCARWDGYCSGGSCYSGMDYWGQGTLVTVS VL: not shown | binds
2 | 6-15 mAb (antibody, V domains shown, Human monoclonal IgG (detected with anti-human IgG Fc); also called clone 6-15) VH: QVQLVQSGGGLVQPGGSLRLSCAASGFTFSSYSMNWVRQAPGKGLEWVSYISSSSSTIYYADSVKGRFTISRDNAKNSLYLQMNSLRAEDTAVYYCARWDGYCSGGSCYSGMDYWGQGTLVTVS VL: DIEMTQSPSSLSASVGDKVTITCQASQDISNYLNWYQQKPGKAPKLLIYDASNLETGVPSRFSGSGSGTDSTFTISSLQPEDIATYYCQQYDNLPLTFGGGTKVEIK | binds
3 | 항-DR3 4-4 항체 (4-4 mAb) (antibody, V domains shown, also called clone 4-4; clone 4-4 IgG1) VH: EVQLVESGGGLVKPGGSLRLSCAASGFTFSDYYMSWIRQAPGKGLEWVSYISSSSSYTNYADSVKGRFTISRDNAKNSLYLQMNSLRAEDTAVYYCASNVDTAMVGAFDIWGQGTLVTVS VL: DIEMTQSPSSVSASVGDTVTITCRASQHISNWLAWYQQKPGQAPKFLIYTASNLQSGVPSRFSGSGYGTDFTLTISGLQPEDFATYYCQQADSFPLTFGGGTKVDIK | binds
